The record followed here is patent US20040197862A1.

One assay has as its target HLA-DR1 (DRA, DRB1*0101), soluble, thrombin-cleaved DR/CLIP complex (human).
For HIV p24 (191-212) peptide, the concentration for half-maximal inhibition (IC50) was 1.6 µM.

Another assay has as its target HLA-DR2b (DRA, DRB1*1501), soluble, thrombin-cleaved DR/CLIP complex (human).
Turning to HIV p24 (111-132) peptide, the half-inhibitory concentration (IC50) was 10.8 µM.

As to HIV p24 (1-22) peptide, the IC50 worked out at 8 µM.

HIV p24 (191-212) peptide displayed a concentration for half-maximal inhibition (IC50) of 3 µM.

The substance HIV p24 (51-72) peptide had a concentration for half-maximal inhibition (IC50) of 10.8 µM.

HIV p24 (161-182) peptide had an IC50 of 9 µM.

On to HIV p24 (171-192) peptide, for which the IC50 was found to be 0.9 µM.

One may read the IC50 as the concentration at which inhibition is half-maximal. A higher IC50 goes with weaker potency in that assay.
